Source: patent US20200247894A1 (Regeneron, published 2020)
Each block holds one binder with its values, some of them ahead of it.

Legend:
[1] = biological target: T1, Rat IL2Rγ extracellular domain expressed with a C-terminal myc-myc-hexahistidine tag (rat); assay: SPR Biacore 4000, anti-hFc-captured mAb, 37 C
T1 construct: whole entry is the tagged construct; also called rIL-2Rg-MMH; rat IL-2Rg-MMH
T1 chain: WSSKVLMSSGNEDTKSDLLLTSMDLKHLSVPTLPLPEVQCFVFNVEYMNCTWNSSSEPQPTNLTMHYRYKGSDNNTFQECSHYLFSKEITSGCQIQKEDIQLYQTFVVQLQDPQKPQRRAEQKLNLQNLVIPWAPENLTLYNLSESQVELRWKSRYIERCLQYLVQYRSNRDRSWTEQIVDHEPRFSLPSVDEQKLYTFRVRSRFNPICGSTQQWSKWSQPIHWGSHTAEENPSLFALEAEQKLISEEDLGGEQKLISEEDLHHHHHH
Method: (§1) Equilibrium dissociation constants (KD values) for IL-2Rγ binding to purified anti-IL2Rγ monoclonal antibodies were determined using a Biacore 4000 instrument equipped with a real-time surface plasmon resonance biosensor. All binding studies were performed in 10 mM HEPES, 150 mM NaCl, 3 mM EDTA, and 0.05% v/v Surfactant Tween-20, pH 7.4 (HBS-ET) running buffer at 25° C. and 37° C. The Biacore sensor surface was first derivatized by amine coupling with a monoclonal mouse anti-human Fc antibody (GE, # BR-1008-39) to capture anti-IL2Rγ monoclonal antibodies.
(§2) The dissociation of monoclonal antibody bound IL2Rγ reagents were monitored for 8-10 minutes in HBS-ET running buffer. Kinetic association (kₐ) and dissociation (kd) rate constants were determined by fitting the real-time sensorgrams to a 1:1 binding model using Scrubber 2.0c curve fitting software. Binding dissociation equilibrium constants (KD) and dissociative half-lives (t_{1/2}) were calculated from the kinetic rate constants as: […]

[2] = biological target: T2, Human IL2Rγ extracellular domain expressed with a C-terminal mouse IgG2a Fc tag (human); assay: SPR Biacore 4000, anti-hFc-captured mAb, 37 C
T2 construct: whole entry is the Fc-fused construct; also called hIL-2Rg-mFc
T2 chain: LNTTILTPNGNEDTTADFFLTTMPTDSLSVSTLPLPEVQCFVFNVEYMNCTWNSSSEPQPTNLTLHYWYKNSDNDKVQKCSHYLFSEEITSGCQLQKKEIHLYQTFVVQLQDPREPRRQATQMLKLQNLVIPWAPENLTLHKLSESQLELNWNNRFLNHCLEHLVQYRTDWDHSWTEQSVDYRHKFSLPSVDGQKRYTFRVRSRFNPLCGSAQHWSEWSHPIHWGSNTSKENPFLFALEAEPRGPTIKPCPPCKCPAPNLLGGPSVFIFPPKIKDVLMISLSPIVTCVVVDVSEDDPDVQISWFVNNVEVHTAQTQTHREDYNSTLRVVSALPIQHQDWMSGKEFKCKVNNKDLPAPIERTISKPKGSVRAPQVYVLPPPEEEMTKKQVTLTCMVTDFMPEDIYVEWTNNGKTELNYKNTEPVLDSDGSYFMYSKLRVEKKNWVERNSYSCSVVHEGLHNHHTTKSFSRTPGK
Method: as §1, §2

[3] = biological target: T3, Mouse IL2Rγ extracellular domain expressed with a C-terminal myc-myc-hexahistidine tag (mouse); assay: SPR Biacore 4000, anti-hFc-captured mAb, 37 C
T3 construct: whole entry is the tagged construct; also called mIL-2Rg-MMH
T3 chain: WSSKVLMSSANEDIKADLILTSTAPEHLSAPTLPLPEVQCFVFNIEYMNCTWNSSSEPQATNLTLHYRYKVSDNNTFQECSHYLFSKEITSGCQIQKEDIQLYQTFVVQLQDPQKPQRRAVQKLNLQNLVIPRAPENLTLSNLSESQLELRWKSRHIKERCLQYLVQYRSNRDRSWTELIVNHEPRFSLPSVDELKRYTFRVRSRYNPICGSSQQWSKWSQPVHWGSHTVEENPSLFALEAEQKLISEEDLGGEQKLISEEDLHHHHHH
Method: as §1, §2

[4] = biological target: T1, Rat IL2Rγ extracellular domain …; assay: SPR Biacore 4000, anti-hFc-captured mAb, 25 C
Method: as §1, §2

[5] = biological target: T2, Human IL2Rγ extracellular domain …; assay: SPR Biacore 4000, anti-hFc-captured mAb, 25 C
Method: as §1, §2

[6] = biological target: T3, Mouse IL2Rγ extracellular domain …; assay: SPR Biacore 4000, anti-hFc-captured mAb, 25 C
Method: as §1, §2

[7] = biological target: T4, Macaca fascicularis IL2Rγ extracellular domain expressed with a C-terminal myc-myc-hexahistidine tag (Macaca fascicularis); assay: SPR Biacore 4000, anti-hFc-captured mAb, 37 C
T4 construct: whole entry is the tagged construct; also called mfIL-2Rg-MMH
T4 chain: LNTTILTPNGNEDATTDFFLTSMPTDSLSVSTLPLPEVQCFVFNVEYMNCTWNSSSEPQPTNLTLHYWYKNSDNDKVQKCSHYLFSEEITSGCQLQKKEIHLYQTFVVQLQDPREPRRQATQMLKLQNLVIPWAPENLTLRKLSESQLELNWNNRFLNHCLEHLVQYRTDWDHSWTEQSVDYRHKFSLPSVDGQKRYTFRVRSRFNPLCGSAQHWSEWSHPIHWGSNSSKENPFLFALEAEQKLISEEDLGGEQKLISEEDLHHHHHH
Method: as §1, §2

B1: H4H12926P2 (antibody, human IgG4 S228P, kappa, V domains shown)
VH: QVQLQQSGPGLVKPSQTLSLTCAISGDSVSSNIAAWNWIRLSPSRGLEWLGRTFFRSTWFYDYSLSVKGRITINPDTSKNQFSLHLNSVTPEDAAVYYCARTGRRWSLDYWGQGTLVTVSS
VL: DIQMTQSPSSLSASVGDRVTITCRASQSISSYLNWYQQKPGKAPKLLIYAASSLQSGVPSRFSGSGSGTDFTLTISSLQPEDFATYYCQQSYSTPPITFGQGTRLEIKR
notes: fully human anti-IL2Rgamma mAb, human IgG4 Fc
100 nM Ag Bound [1]: 2 RU
50 nM Ag Bound [2]: 11 RU
Kd [2]: 16 nM
koff [2]: 0.00326 s⁻¹
kon [2]: 204000 M⁻¹ s⁻¹
t1/2 [2]: 4 min
100 nM Ag Bound [3]: 0 RU
100 nM Ag Bound [4]: 2 RU
binding result [4]: no binding (tested: 100 nM)
50 nM Ag Bound [5]: 46 RU
Kd [5]: 5.21 nM
koff [5]: 0.000962 s⁻¹
kon [5]: 185000 M⁻¹ s⁻¹
t1/2 [5]: 12 min
100 nM Ag Bound [6]: 0 RU
binding result [6]: no binding (tested: 100 nM)

B3: H4H12858P (antibody, human IgG4 S228P, kappa, V domains shown)
VH: EVQLVESGGDLVQPGGSLRLSCTASGFIFRNYAMNWVRQAPGKGLEWLSGILGSNDNTYYVDSVKGRFTISRDNSRNTLYLQMNSLRAEDSAVYYCAKGDAGGFDYWGQGTLVTVSS
VL: DVVMTQSPLSLPVILGQPASISCRSSQSLVSSDGNTYLNWFQQRPGQSPRRLIYKVSNRDSGVPDRFSGSGSGTDFTLKISRVEAEDVGAYYCMQGSYWPPTFGQGTKLEIKR
notes: fully human anti-IL2Rgamma mAb, human IgG4 Fc; also called REGN9433
100 nM Ag Bound [7]: 47 RU
Kd [7]: 4.77 nM
koff [7]: 0.00148 s⁻¹
kon [7]: 309000 M⁻¹ s⁻¹
t1/2 [7]: 8 min
100 nM Ag Bound [1]: 0 RU
50 nM Ag Bound [2]: 37 RU
Kd [2]: 1.49 nM
koff [2]: 0.00025 s⁻¹
kon [2]: 167000 M⁻¹ s⁻¹
t1/2 [2]: 46 min
100 nM Ag Bound [3]: 0 RU
100 nM Ag Bound [4]: 0 RU
binding result [4]: no binding (tested: 100 nM)
50 nM Ag Bound [5]: 46 RU
Kd [5]: 0.855 nM
koff [5]: 9.94e-05 s⁻¹
kon [5]: 116000 M⁻¹ s⁻¹
t1/2 [5]: 116 min
100 nM Ag Bound [6]: 2 RU
binding result [6]: no binding (tested: 100 nM)

B6: H4H12884P (antibody, human IgG4 S228P, kappa, V domains shown)
VH: QVQLQESGPGLVKPSQTLSLTCTVSGGSISSGGYYWSWIRQHPGKGLEWIGFIYYSGKTYYNPSLKSRLTISVDTSKSQFSLKLRSVTAADTAVYYCARLGYTNSAGWFDPWGQGTLVTVSS
VL: DIQMTQSPSSLSASVGDRVTITCRASQSISSYLNWYQQKPGKAPNLLIYAASSLQSGVPSRFSGSGSGTDFTLTISSLQPEDLATYYCQQSYTTPFTFGPGTKVDIKR
notes: as for B1
100 nM Ag Bound [7]: 59 RU
Kd [7]: 16.1 nM
koff [7]: 0.00321 s⁻¹
kon [7]: 200000 M⁻¹ s⁻¹
t1/2 [7]: 4 min
100 nM Ag Bound [1]: 4 RU
50 nM Ag Bound [2]: 85 RU
Kd [2]: 0.0554 nM
koff [2]: 2.69e-05 s⁻¹
kon [2]: 486000 M⁻¹ s⁻¹
t1/2 [2]: 429 min
100 nM Ag Bound [3]: 1 RU
100 nM Ag Bound [4]: 4 RU
binding result [4]: no binding (tested: 100 nM)
50 nM Ag Bound [5]: 112 RU
Kd [5]: 0.113 nM
koff [5]: 4.02e-05 s⁻¹
kon [5]: 355000 M⁻¹ s⁻¹
t1/2 [5]: 287 min
100 nM Ag Bound [6]: 2 RU
binding result [6]: no binding (tested: 100 nM)

B7: H4H12913P2 (antibody, human IgG4 S228P, kappa, V domains shown)
VH: EVQLVESGGGVVRPGGSLRLSCAASGFTFDDYGMSWVRQAPGKGLEWISSINRNGGSADYADSVKGRFTISRDNAKNSLFLQMSSLRAEDTALYHCASGEFRFDYWGQGTLVTVSS
VL: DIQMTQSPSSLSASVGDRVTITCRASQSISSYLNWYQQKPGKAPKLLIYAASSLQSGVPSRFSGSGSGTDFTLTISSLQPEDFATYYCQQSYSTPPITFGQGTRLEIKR
notes: as for B1
100 nM Ag Bound [7]: 20 RU
Kd [7]: 37.3 nM
koff [7]: 0.00296 s⁻¹
kon [7]: 79300 M⁻¹ s⁻¹
t1/2 [7]: 4 min
100 nM Ag Bound [1]: 3 RU
50 nM Ag Bound [2]: 9 RU
Kd [2]: 2.53 nM
koff [2]: 0.000185 s⁻¹
kon [2]: 73200 M⁻¹ s⁻¹
t1/2 [2]: 62 min
100 nM Ag Bound [3]: 0 RU
100 nM Ag Bound [4]: 1 RU
binding result [4]: no binding (tested: 100 nM)
50 nM Ag Bound [5]: 12 RU
Kd [5]: 1.3 nM
koff [5]: 5.34e-05 s⁻¹
kon [5]: 41200 M⁻¹ s⁻¹
t1/2 [5]: 216 min
100 nM Ag Bound [6]: 1 RU
binding result [6]: no binding (tested: 100 nM)

More lines, now with the values ahead:

100 nM Ag Bound [7]: 24 RU
Kd [7]: 20.7 nM
koff [7]: 0.0137 s⁻¹
kon [7]: 662000 M⁻¹ s⁻¹
t1/2 [7]: 0.8 min
100 nM Ag Bound [1]: 3 RU
50 nM Ag Bound [2]: 13 RU
Kd [2]: 12.2 nM
koff [2]: 0.000183 s⁻¹
kon [2]: 15000 M⁻¹ s⁻¹
t1/2 [2]: 63 min
100 nM Ag Bound [3]: -1 RU
100 nM Ag Bound [4]: 3 RU
binding result [4]: no binding (tested: 100 nM)
50 nM Ag Bound [5]: 28 RU
Kd [5]: 5.66 nM
koff [5]: 0.000411 s⁻¹
kon [5]: 72600 M⁻¹ s⁻¹
t1/2 [5]: 28 min
100 nM Ag Bound [6]: 2 RU
B2: H4H12924P2 (antibody, human IgG4 S228P, kappa, V domains shown)
VH: EVQLVESGGGLVQPGRSLRLSCAASGFTLEDYAMHWVRQAPGKGLEWVSGISWNRGSTGYADSVKGRFTISRDNAKNSLYLQMTSLRAEDTALYYCAKGFYSMDVWGQGTTVTVSS
VL: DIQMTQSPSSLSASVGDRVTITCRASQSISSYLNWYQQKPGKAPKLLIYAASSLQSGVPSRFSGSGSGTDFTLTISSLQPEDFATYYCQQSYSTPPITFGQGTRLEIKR
notes: as for B1

100 nM Ag Bound [7]: 47 RU
Kd [7]: 17.7 nM
koff [7]: 0.000846 s⁻¹
kon [7]: 47800 M⁻¹ s⁻¹
t1/2 [7]: 14 min
100 nM Ag Bound [1]: 4 RU
50 nM Ag Bound [2]: 19 RU
Kd [2]: 12.8 nM
koff [2]: 9.09e-05 s⁻¹
kon [2]: 7080 M⁻¹ s⁻¹
t1/2 [2]: 127 min
100 nM Ag Bound [3]: -2 RU
100 nM Ag Bound [4]: 3 RU
binding result [4]: no binding (tested: 100 nM)
50 nM Ag Bound [5]: 23 RU
Kd [5]: 1.26 nM
koff [5]: 6.7e-05 s⁻¹
kon [5]: 53400 M⁻¹ s⁻¹
t1/2 [5]: 172 min
100 nM Ag Bound [6]: 2 RU
B4: H4H12886P (antibody, human IgG4 S228P, kappa, V domains shown)
VH: EVQLVESGGGLVKPGGSLRLSCAASGFTFSTAWMSWVRQSPGRGLEWVGRMKSKTDGGTTFYAAPVKGRFTISRDDSKNTLYLQMNSLKTEDTAVYYCTTGLVPAFYKYYGVDVWGQGTTVTVSS
VL: DIQMTQSPSSLSASVGDRITITCQASQDITNYLNWYQQKPGKAPNLLIYDASNLVTGVPSRFSGSGSGTDFTFTILSLQPEDIATYYCQQYDSLLTFGPGTKVDIKR
notes: as for B1

100 nM Ag Bound [7]: 55 RU
Kd [7]: 12.7 nM
koff [7]: 0.00261 s⁻¹
kon [7]: 206000 M⁻¹ s⁻¹
t1/2 [7]: 4 min
100 nM Ag Bound [1]: 1 RU
50 nM Ag Bound [2]: 81 RU
Kd [2]: 0.0505 nM
koff [2]: 2.39e-05 s⁻¹
kon [2]: 473000 M⁻¹ s⁻¹
t1/2 [2]: 484 min
100 nM Ag Bound [3]: -1 RU
100 nM Ag Bound [4]: 1 RU
binding result [4]: no binding (tested: 100 nM)
50 nM Ag Bound [5]: 103 RU
Kd [5]: 0.144 nM
koff [5]: 5.22e-05 s⁻¹
kon [5]: 363000 M⁻¹ s⁻¹
t1/2 [5]: 221 min
100 nM Ag Bound [6]: 0 RU
B5: H4H12871P (antibody, human IgG4 S228P, kappa, V domains shown)
VH: QVQLQESGPGLVKPSQTLSLTCTVSGGSITSGGYYWSWIRQYPGQGLEWIGYIYYSGKTYYNPSFTSRITISVDTSKKQFSLKMSSVTAADTAVYYCARAGFTSSNGWFDPWGQGTLVTVSS
VL: DIQMTQSPSSLSASVGDRVTITCRASQNIRSYLNWYQQKPGKAPKLLIYSASSLQSGVPSRFSGSGSGTDFTLTISSLQPEDFPTYYCQQTYSSPWTFGPGTKVEIKR
notes: fully human anti-IL2Rgamma mAb, human IgG4 Fc; also called REGN9434
